Data on 3 molecules can be found in publication PMC4956467.

What all share (experiment): BLI
On the technique in general: Biolayer interferometry detects binding as a change in optical thickness at a sensor tip.

Series [1] concerns the target HIV-1 viral infectivity factor (Vif), full length, refolded, biotinylated (HIV-1) (UniProt P12504).
Series [2] deals with A3Fc-CD2 Y308A (human, UniProt Q9HC16 197-221+Q8IUX4:220-373, Y308A;internal_change).
The target of series [3] is A3Fc-CD2 Y307A (human, UniProt Q9HC16 197-221+Q8IUX4:220-373, Y307A;internal_change).
Series [4] addresses A3Fc-CD2 W310A (human, UniProt Q9HC16 197-221+Q8IUX4:220-373, W310A;internal_change).
Series [5] addresses A3Fc-CD2 Y314A (human, UniProt Q9HC16 197-221+Q8IUX4:220-373, Y314A;internal_change).
For series [6], the target named is A3Fc-CD2 D313A (human, UniProt Q9HC16 197-221+Q8IUX4:220-373, D313A;internal_change).
Series [7] has as its target A3Fc-CD2 F309A (human, UniProt Q9HC16 197-221+Q8IUX4:220-373, F309A;internal_change).

A word on the Kd: it is a measure of binding affinity in units of concentration. The low end stands for tighter binding, the high end for weaker binding.

For “A3Fc-CD2 L263A (from UniProt Q9HC16 197-221; Q8IUX4 218-373) (domain or fragment)”, in series [1], the Kd was 1.1 µM.

On to “chimeric A3F C-terminal domain (A3Fc-CD2), wild type (from UniProt Q9HC16 197-221; Q8IUX4 218-373) (domain or fragment)”, for which, in series [1], the Kd worked out at 1.1 µM.

B1: 42-mer ssDNA, viral U5 end of 3'-LTR (ssDNA)
DNA: TCCCTCAGACCCTTTTAGTCAGTGTGGAAAATCTCTAGCAGT
As for B1, the Kd is 18 µM in series [2]; 410 µM in series [3]; 27 µM in series [4]; 68 µM in series [5]; 220 µM in series [6]; 31 µM in series [7].
